These results are taken from US20220363757A1 (SYMPHOGEN A S, published 2022).

Positions count from the first letter of the chain named.

Common to all, as to assay: SPR, Fab over captured mutant LAG-3-Fc
In general terms: Surface plasmon resonance follows binding to a sensor surface in real time, without labels.

In assay [1] the target is T1, human LAG-3 domain 1-2 Fc fusion, chimeric construct #10 (mutated region AA 70-77) (human, UniProt P18627 23-266).
T1 construct: 'Q71Q' copied as printed; construct #9 prints P71Q for the same position
T1 chain: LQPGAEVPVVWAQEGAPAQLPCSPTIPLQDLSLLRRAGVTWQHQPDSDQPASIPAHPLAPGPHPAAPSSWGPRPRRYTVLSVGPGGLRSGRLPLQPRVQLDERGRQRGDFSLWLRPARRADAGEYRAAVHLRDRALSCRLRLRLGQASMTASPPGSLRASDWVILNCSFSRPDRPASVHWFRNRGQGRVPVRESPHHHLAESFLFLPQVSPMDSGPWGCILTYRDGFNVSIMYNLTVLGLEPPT

The target in assay [2] is T2, human LAG-3 domain 1-2 Fc fusion, chimeric construct #5 (mutated region AA 46-51) (human, UniProt P18627 23-266).
T2 construct: not shown: human IgG1 Fc, AA P101-K330
T2 chain: T1 chain with P24L, T25E, I26F, L28H, Q29L, D48G, Q49P, S52A, I53A, A55G

The target in assay [3] is T3, human LAG-3 domain 1-2 Fc fusion, chimeric construct #28 (mutated region AA 84-90, cynomolgus backmutations) (human, UniProt P18627 23-266).
T3 construct: not shown: human IgG1 Fc, AA P101-K330
T3 chain: T1 chain with D48G, Q49P, S52A, I53A, A55G, P62H, H63R, S68Y

Assay [4] deals with T4, human LAG-3 domain 1-2 Fc fusion, chimeric construct #4 (mutated region AA 40-47) (human, UniProt P18627 23-266).
T4 construct: not shown: human IgG1 Fc, AA P101-K330
T4 chain: T1 chain with A18V, Q19H, P24L, T25E, D48G, Q49P, S52A, I53A, A55G

The target in assay [5] is T5, human LAG-3 domain 1-2 Fc fusion, chimeric construct #2 (mutated region AA 29-30) (human, UniProt P18627 23-266).
T5 construct: not shown: human IgG1 Fc, AA P101-K330
T5 chain: T1 chain with V7L, P8S, D48G, Q49P, S52A, I53A, A55G

Assay [6] addresses T6, human LAG-3 domain 1-2 Fc fusion, chimeric construct #15 (mutated region AA 95-100) (human, UniProt P18627 23-266).
T6 construct: not shown: human IgG1 Fc, AA P101-K330
T6 chain: T1 chain with D48G, Q49P, S52A, I53A, A55G, R73G, R76S, T78V

Assay [7] addresses T7, human LAG-3 domain 1-2 Fc fusion, chimeric construct #7 (mutated region AA 53-60) (human, UniProt P18627 23-266).
T7 construct: not shown: human IgG1 Fc, AA P101-K330
T7 chain: T1 chain with L31P, S32N, L33F, A37G, G38W, D48G, Q49P, S52A, I53A, A55G

Assay [8] has as its target T8, human LAG-3 domain 1-2 Fc fusion, point mutation #17 Q66A (human, UniProt P18627 23-266).
T8 construct: not shown: human IgG1 Fc, AA P101-K330
T8 sequence: T1 chain with Q44A, D48G, Q49P, S52A, I53A, A55G

Assay [9] addresses T9, human LAG-3 domain 1-2 Fc fusion, point mutation #37 S90A (human, UniProt P18627 23-266).
T9 construct: not shown: human IgG1 Fc, AA P101-K330
T9 sequence: T1 chain with D48G, Q49P, S52A, I53A, A55G, S68A

B1: Fab fragment of antibody 15532 (Fab, V domains shown, not shown: a dimerising Fc or GST)
VH: QVQLQQWGAGLLRPSETLSLTCAVYGESFSGYYWNWIRQPPGKGLEWIGEINHSGSTNYNPSLKSRVTISVDTSKTQFSLKLSSVTAADTAVYYCARGWDLLDWNDYWNEYWGQGTLVTVSS
VL: EIVLTQSPATLSLSPGERATLSCRASQSVSSYLAWYQQKPGQAPRLLIYDASNRATGIPARFSGSGSGTDFTLTISSLEPEDFAVYYCQQRSNWPLTFGGGTKVEIKR
notes: monomeric Fab made by GingisKHAN digestion of the IgG1
As to B1, the “KD mutant/KD wild type” value in assay [1] was 1.1 fold; in assay [2], 2.7 fold; in [3], 4.8 fold; in [4] it was 3.9 fold; in assay [5] it was 3.1 fold; in [6], 6.5 fold. Moreover, the “KD mutant/KD wild type” value in [7] is 3.4 fold; in assay [8] it was 2.7 fold; in [9] it was 0.6 fold.

B2: Fab fragment of antibody 15431 (Fab, V domains shown, not shown: a dimerising Fc or GST)
VH: QVQLQQSGPGLVKPSQTLSLTCAISGDSVSSNSAAWNWIRQSPSRGLEWLGRTYYRSKWYNDYAVSVKSRITINPDTSKNQFSLQLNSVTPEDTAVYYCARDDDWNDFDYWGQGTLVTVSS
VL: B1 VL
notes: as for B1
For B2, the “KD mutant/KD wild type” value amounted to 1.1 fold in assay [1], 1.1 fold in assay [3] and 0.9 fold in [9]. For the same molecule, the binding result in assay [2], in [4], in [5], in assay [6], in [7] and in [8] was “no binding (tested: 300 nM)” throughout.

B3: Fab fragment of antibody 15011 (Fab, V domains shown, not shown: a dimerising Fc or GST)
VH: EVQLLESGGGLVQPGGSLRLSCAASGFDFRSYAMMWVRQAPGKGLEWVGGINGEVGGSNTYYAPAVKGRATISRDNSKNTLYLQMNSLRAEDTAVYYCVKGAGACGICNDDIDAWGQGTLVTVSS
VL: SYELTQDPAVSVALGQTVRITCSGAGSYAGSYYYGWHQQKPGQAPVTVIYDNDKRPSNIPDRFSGSSSGNTASLTITGAQAEDEADYYCGSTNDNDDGGLFGSGTKVTVLG
notes: as for B1
For the molecule B3, the “KD mutant/KD wild type” value in assay [1] was 1.8 fold; in [2], 0.5 fold; in [3] it was 0.6 fold; in assay [4] it was 0.5 fold; in assay [5], 0.5 fold; in assay [6], 1.9 fold. The figures for the “KD mutant/KD wild type” value in assay [7], in [8] and in assay [9] were 0.5 fold, 0.7 fold and 0.9 fold, respectively.

B4: Fab fragment of antibody 15572 (Fab, V domains shown, not shown: a dimerising Fc or GST)
VH: QLQLQESGPGLVKPSETLSLTCTVSGDSISSSSYYWGWIRQPPGKGLEWIGSIFYSGNTYYNPSLKSRVTISVDTSKNQFSLKLSSVTAADTAVYYCAREDDFLTDYYGAFDIWGQGTMVTVSS
VL: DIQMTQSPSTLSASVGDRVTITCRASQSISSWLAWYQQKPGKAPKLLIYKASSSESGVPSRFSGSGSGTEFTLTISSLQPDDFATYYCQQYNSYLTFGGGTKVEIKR
notes: as for B1
With B4, the “KD mutant/KD wild type” value in assay [1] came to 0.7 fold; in assay [3], 0.5 fold; in assay [6] it was 3.1 fold; in assay [9], 0.8 fold. Besides, the binding result in assay [2], in [4], in [5], in [7] and in assay [8] was “no binding (tested: 300 nM)” each time.
